Data on 19 molecules can be found in publication PMC3325190 (PLoS Pathogens, 2012).

B1: TTC amrZ1 (dsDNA)
DNA 1: GTACTTTCAAAACGAAGGCACG
DNA 2: CGTGCCTTCGTTTTGAAAGTAC
B2: m7 algD (dsDNA)
DNA 1: CATTGGACATTACCAGCCTCCC
DNA 2: GGGAGGCTGGTAATGTCCAATG
B3: m8 algD (dsDNA)
DNA 1: CATTGGCAATTACCAGCCTCCC
DNA 2: GGGAGGCTGGTAATTGCCAATG
B4: m16 algD (dsDNA)
DNA 1: CATTGGCCATTACCATCCTCCC
DNA 2: GGGAGGATGGTAATGGCCAATG
B5: m17 algD (dsDNA)
DNA 1: CATTGGCCATTACCAGACTCCC
DNA 2: GGGAGTCTGGTAATGGCCAATG
B6: GTC amrZ1 (dsDNA)
DNA 1: GTACTGTCAAAACGACGGCACG
DNA 2: CGTGCCGTCGTTTTGACAGTAC
B7: WT amrZ1 (dsDNA)
DNA 1: GTACTGGCAAAACGCCGGCACG
DNA 2: CGTGCCGGCGTTTTGCCAGTAC
B8: TTC/GC amrZ1 (dsDNA)
DNA 1: GTACTTTCCGCGCGAAGGCACG
DNA 2: CGTGCCTTCGCGCGGAAAGTAC
B9: ATAT amrZ1 (dsDNA)
DNA 1: GTACTGGCATATCGCCGGCACG
DNA 2: CGTGCCGGCGATATGCCAGTAC
B10: CGCG amrZ1 (dsDNA)
DNA 1: GTACTGGCCGCGCGCCGGCACG
DNA 2: CGTGCCGGCGCGCGGCCAGTAC
B11: m13 algD (dsDNA)
DNA 1: CATTGGCCATTAACAGCCTCCC
DNA 2: GGGAGGCTGTTAATGGCCAATG
B12: WT algD (dsDNA)
DNA 1: CATTGGCCATTACCAGCCTCCC
DNA 2: GGGAGGCTGGTAATGGCCAATG
B13: m14 algD (dsDNA)
DNA 1: CATTGGCCATTACAAGCCTCCC
DNA 2: GGGAGGCTTGTAATGGCCAATG
B14: m6 algD (dsDNA)
DNA 1: CATTGTCCATTACCAGCCTCCC
DNA 2: GGGAGGCTGGTAATGGACAATG
B15: m5 algD (dsDNA)
DNA 1: CATTTGCCATTACCAGCCTCCC
DNA 2: GGGAGGCTGGTAATGGCAAATG
B16: TTTT amrZ1 (dsDNA)
DNA 1: GTACTGGCTTTTCGCCGGCACG
DNA 2: CGTGCCGGCGAAAAGCCAGTAC
B17: AATT amrZ1 (dsDNA)
DNA 1: GTACTGGCAATTCGCCGGCACG
DNA 2: CGTGCCGGCGAATTGCCAGTAC
B18: amrZ1 18 bp crystal oligo (dsDNA)
DNA 1: ACTGGCAAAACGCCGGCA
DNA 2: TGCCGGCGTTTTGCCAGT
B19: Δ42 AmrZ (C-terminal truncation mutant of AmrZ, residues 1–66) (domain or fragment)
chain: [SeMet]RPLKQATPTYSSRTADKFVVRLPEG[SeMet]REQIAEVARSHHRS[SeMet]NSEIIARLEQSLLQEGALQDNLGV
notes: not shown: poly-Histidine, N-terminal, cleaved

[ ]: non-standard residue; d: D form. SeMet = C[Se]CC[C@H](N)C(=O)O

The target in the first series is T1, AmrZ WT (Pseudomonas aeruginosa PAO1, UniProt G3XCY4 1-108).
T1 sequence: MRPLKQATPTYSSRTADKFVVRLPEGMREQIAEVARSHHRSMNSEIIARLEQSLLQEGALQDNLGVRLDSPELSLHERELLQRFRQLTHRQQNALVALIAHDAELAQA
As to the kind of experiment: fluorescence anisotropy. As to conditions: protein: recombinant; tags: N-terminal poly-His with 3C site, cleaved by PreScission; chain copies: 4; blunt. In general terms: Polarisation of emitted light reports the rotation of a fluorescent probe.
As for B1, the Kd is 109 ± 13 nM.

Consider B2, for which the Kd is 530 ± 52 nM.

As for B3, the Kd is 365 ± 30 nM.

B4: the Kd came to 203 ± 17 nM.

Regarding B5, the Kd came out at 212 ± 19 nM.

On to B6, for which the Kd is 82.7 ± 8.6 nM.

As for B7, the Kd was determined as 8.41 ± 0.8 nM.

As to B8, the Kd stood at 2050 ± 180 nM.

On to B9, for which the Kd is 39.1 ± 4.6 nM.

With B10, the Kd amounted to 63.4 ± 7.3 nM.

Take B11: the Kd turned out to be 256 ± 20 nM.

For the molecule B12, the Kd stood at 198 ± 14 nM.

B13: the Kd is 216 ± 17 nM.

B14: the Kd was determined as 723 ± 37 nM.

As for B15, the equilibrium dissociation constant (Kd) was 164 ± 17 nM.

Take B16: the Kd was 41.7 ± 5.1 nM.

Consider B17, for which the Kd amounted to 58.6 ± 7.5 nM.

For another series, the target named is T2, AmrZ delta42 (Pseudomonas aeruginosa PAO1, UniProt G3XCY4 1-66).
T2 sequence: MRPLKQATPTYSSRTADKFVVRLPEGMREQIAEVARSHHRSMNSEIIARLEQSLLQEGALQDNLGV
As to the kind of experiment: X-ray crystal structure (3.1 A); 50 mM MgSO4; SeMet protein; 100 mM Bis-Tris pH 6.5, 150 mM NaCl, 5% glycerol, 100 ug/ml BSA, 100 nM nonspecific DNA, 1 nM 6-FAM 22-mer, 25 C. The note with it: protein: recombinant; tags: N-terminal poly-His with 3C site, cleaved by PreScission; chain copies: 4.
In the case of B18, the binding result was “binds”.

The next series concerns the molecule itself. As to the kind of experiment: crystal structure; Se-Met Δ42 AmrZ in complex with 18 bp amrZ1 DNA; hanging drop vapor diffusion at 25°C, 3% PEG8K, 0.1 M MES pH 6.0, 0.15 M NaCl, 2 mM TCEP, 50 mM MgSO4; 3.1 Å; dimer and dimer of dimers seen on the DNA.
Conditions: not given
Regarding B19, the “stoichiometry N” value is 4.

Broadly, the Kd is a measure of binding affinity in units of concentration. Broadly, the stoichiometry N is a count of units in the complex or per binding partner.
